Data reported in US20230058779A1, “COMBINATION CANCER TREATMENT USING A PD-1 ANTAGONIST, AN ILT4 ANTAGONIST, AND LENVATINIB OR SALTS THEREOF” (Merck Sharp & Dohme LLC, priority 2020, published 2023).

System: participants with advanced solid tumors
Assay: Phase 1 open label, multi-arm, multi-center study of MK-4830 as monotherapy or in combination with pembrolizumab (NCT03564691)
Assay type: in vivo, human
Details: 1600 mg dose level, MK-4830 monotherapy cohort

## MK-4830: anti-ILT4 antibody; light chain SEQ ID NO:5, heavy chain SEQ ID NO:10
  transient Grade 3 blood pressure increase: one episode
